{
  "source": "patent US20240024386A1",
  "about": "“MICROBIOME MEDIATED INDUCTION OF IMMUNE TOLERANCE AND RESOLUTION OF INFLAMMATION” (INFINANT HEALTH, INC., priority 2020, published 2024)",
  "origin": "cited, not measured here",
  "system": "COVID-19",
  "conditions": "triple therapy with lopinavir—ritonavir and ribavirin",
  "data": [
    {"molecule": "IFNβ-1b: interferon beta-1b, used in triple therapy with lopinavir—ritonavir and ribavirin (protein, UniProt P01574 22-187, looked up, variant C17S, lacks Met1; non-glycosylated, interferon beta-1b, used in triple therapy with lopinavir—ritonavir and ribavirin) Interferon beta: MSYNLLGFLQRSSNFQSQKLLWQLNGRLEYCLKDRMNFDIPEEIKQLQQFQKEDAALTIYEMLQNIFAIFRQDSSSTGWNETIVENLLANVYHQINHLKTVLEEKLEKEDFTRGKLMSSLHLKRYYGRILHYLKAKEYSHCAWTIVRVEILRNFYFINRLTGYLRN", "values": [
      {"measurement": "period of viral shedding for COVID-19", "result": "shortened"}
    ]}
  ]
}
